Measurements published in IntAct's records for PubMed 16908849.

B1: Tumor protein 63 (Homo sapiens), Q9H3D4 (parent)
chain: MNFETSRCATLQYCPDPYIQRFVETPAHFSWKESYYRSTMSQSTQTNEFLSPEVFQHIWDFLEQPICSVQPIDLNFVDEPSEDGATNKIEISMDCIRMQDSDLSDPMWPQYTNLGLLNSMDQQIQNGSSSTSPYNTDHAQNSVTAPSPYAQPSSTFDALSPSPAIPSNTDYPGPHSFDVSFQQSSTAKSATWTYSTELKKLYCQIAKTCPIQIKVMTPPPQGAVIRAMPVYKKAEHVTEVVKRCPNHELSREFNEGQIAPPSHLIRVEGNSHAQYVEDPITGRQSVLVPYEPPQVGTEFTTVLYNFMCNSSCVGGMNRRPILIIVTLETRDGQVLGRRCFEARICACPGRDRKADEDSIRKQQVSDSTKNGDGTKRPFRQNTHGIQMTSIKKRRSPDDELLYLPVRGRETYEMLLKIKESLELMQYLPQHTIETYRQQQQQQHQHLLQKQTSIQSPSSYGNSSPPLNKMNSMNKLPSVSQLINPQQRNALTPTTIPDGMGANIPMMGTHMPMAGDMNGLSPTQALPPPLSMPSTSHCTPPPPYPTDCSIVSFLARLGCSSCLDYFTTQGLTTIYQIEHYSMDDLASLKIPEQFRHAIWKGILDHRQLHEFSSPSHLLRTPSSASTVSVGSSETRGERVIDAVRFTLRQTISFPPRDEWNDFNFDMDARRNKQQRIKEEGE

Variants of: B1
Conditions: with itch_human ITCH

| Variant | effect of a mutation on the interaction |
| --- | --- |
| Y543F | disrupting interaction strength |
